T1: DARC (Homo sapiens, UniProt Q16570)
T1 construct: expressed in transfected cells; host or cells: HEK293T
T1 sequence (Q16570 1-336): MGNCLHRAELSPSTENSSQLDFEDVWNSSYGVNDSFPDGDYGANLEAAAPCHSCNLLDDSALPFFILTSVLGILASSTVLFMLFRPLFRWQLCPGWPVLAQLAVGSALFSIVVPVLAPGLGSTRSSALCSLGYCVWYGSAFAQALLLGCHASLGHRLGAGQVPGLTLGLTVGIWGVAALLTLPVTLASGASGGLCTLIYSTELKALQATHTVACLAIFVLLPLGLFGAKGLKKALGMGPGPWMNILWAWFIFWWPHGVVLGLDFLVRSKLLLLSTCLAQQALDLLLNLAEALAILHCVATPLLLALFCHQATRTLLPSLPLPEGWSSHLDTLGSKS

T2: CXCR1 (Homo sapiens, UniProt P25024)
T2 sequence (P25024 1-350): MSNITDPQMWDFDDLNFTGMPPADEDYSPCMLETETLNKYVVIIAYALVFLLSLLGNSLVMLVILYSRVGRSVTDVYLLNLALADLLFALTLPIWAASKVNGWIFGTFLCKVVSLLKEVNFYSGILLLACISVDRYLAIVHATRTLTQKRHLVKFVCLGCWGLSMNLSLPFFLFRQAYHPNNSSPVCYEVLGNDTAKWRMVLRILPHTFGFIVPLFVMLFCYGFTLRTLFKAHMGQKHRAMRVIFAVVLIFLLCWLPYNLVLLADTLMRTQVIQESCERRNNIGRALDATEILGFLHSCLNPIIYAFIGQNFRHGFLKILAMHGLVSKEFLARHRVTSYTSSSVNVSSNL

T3: CXCR2 (Homo sapiens, UniProt P25025)
T3 sequence (P25025 1-360): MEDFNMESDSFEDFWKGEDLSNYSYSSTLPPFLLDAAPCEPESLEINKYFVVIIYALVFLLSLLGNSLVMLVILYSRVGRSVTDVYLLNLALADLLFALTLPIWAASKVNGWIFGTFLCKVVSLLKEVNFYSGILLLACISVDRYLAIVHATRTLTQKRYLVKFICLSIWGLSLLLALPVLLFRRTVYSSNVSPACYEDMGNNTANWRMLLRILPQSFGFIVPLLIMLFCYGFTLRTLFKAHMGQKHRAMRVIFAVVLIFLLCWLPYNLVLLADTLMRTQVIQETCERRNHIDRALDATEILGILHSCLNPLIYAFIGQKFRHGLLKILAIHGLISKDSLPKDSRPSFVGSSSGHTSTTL

B1: LukED: S. aureus bicomponent pore-forming leukotoxin leukocidin E/D, LukE plus LukD subunits (protein)
chain 1: NTNIENIGDGAEVIKRTEDVSSKKWGVTQNVQFDFVKDKKYNKDALIVKMQGFINSRTSFSDVKGSGYELTKRMIWPFQYNIGLTTKDPNVSLINYLPKNKIETTDVGQTLGYNIGGNFQSAPSIGGNGSFNYSKTISYTQKSYVSEVDKQNSKSVKWGVKANEFVTPDGKKSAHDRYLFVQSPNGPTGSAREYFAPDNQLPPLVQSGFNPSFITTLSHEKGSSDTSEFEISYGRNLDITYATLFPRTGIYAERKHNAFVNRNFVVRYEVNWKTHEIKVKGHN
chain 2: AQHITPVSEKKVDDKITLYKTTATSDNDKLNISQILTFNFIKDKSYDKDTLVLKAAGNINSGYKKPNPKDYNYSQFYWGGKYNVSVSSESNDAVNVVDYAPKNQNEEFQVQQTLGYSYGGDINISNGLSGGLNGSKSFSETINYKQESYRTTIDRKTNHKSIGWGVEAHKIMNNGWGPYGRDSYDPTYGNELFLGGRQSSSNAGQNFLPTHQMPLLARGNFNPEFISVLSHKQNDTKKSKIKVTYQREMDRYTNQWNRLHWVGNNYKNQNTVTFTSTYEVDWQNHTVKLIGTDSKETNPGV
modifications: left off: small tags and cut ends
notes: S. aureus bicomponent pore-forming leukotoxin leukocidin E/D, LukE plus LukD subunits

What was measured:
human PMNs [1] = assay: Viability of PMNs challenged with a lethal dose of LukED in the presence of chemokines; format: cell-based; conditions: LukED 75 nM
PMNs = assay: Ex vivo infection of PMNs with toxin-producing S. aureus strains; format: cell-based, human; conditions: multiplicity of infection of 10
Experimental: Ex vivo infection experiments. S. aureus strains containing either the pOS1-plukA-lukAs.s.-6×His vector construct containing either no toxin (empty), lukED or lukE^DR4D were subcultured for 4.5 hours, followed by normalization to 1×10^9 CFU per ml in RPMI+10% FBS. Cells were diluted 1:10 and 20 μl were added to 80 μl of media containing 2×10^5 PMNs seeded into 96-well plates. Infections were carried out for 3.5 hours at 37° C. with shaking at 180 RPM. 2 μg ml-1 of lysostaphin was added for 20 minutes at 37° C. with shaking at 180 RPM to kill all bacteria. Cells were centrifuged for 5 minutes at 1,500 RPM and 4° C., followed by fixing in FACS fixing buffer (PBS+2% FBS+2% paraformaldehyde+0.05% sodium azide). To analyze toxin mediated killing by flow cytometry, cellular depletion from gated live cells was evaluated. Percent cell death was calculated by comparing cells remaining in the live gate to that of Newman ΔΔΔΔ strain containing the empty pOS1-plukA modified empty vector (no toxin), which was set to 0% dead.

monocytes within PBMCs = assay: LukED treatment of human PBMCs, CD14/CD3 flow cytometry; format: cell-based; conditions: PBMCs from a Δ32Ccr5 donor; LukED 75 nM
Experimental: (§1) Isolation of PBMCs. Blood was obtained as buffy coats with the consent of de-identified donors from the New York Blood Center. PBMCs were isolated from blood using a Ficoll-Paque PLUS gradient (GE Amersham) and gated on CCR5^+ cells, followed by anti-CD3 and CD14 cell surface staining for lymphocyte and monocyte populations. Cells were then incubated with LukED (75 nM) in the presence or absence of maraviroc (MVC, 100 ng ml-1).
CCR5 inhibitor and ligands. Maraviroc was obtained through the AIDS Research and Reference Reagent Program, Division of AIDS (NIAID, NIH) and used at a final concentration of 100 ng ml-1.
(§2) FACS analysis. Cell staining was performed as described previously (Alonzo et al., “CCR5 is a Receptor for Staphylococcus aureus Leukotoxin ED,” Nature 493:51-55 (2013), which is hereby incorporated by reference in its entirety). FACS data were obtained using FACSDiva software on a LSRII flow cytometer (BD Biosciences). Data was analyzed using FlowJo software (Treestar).
(§3) Leukotoxin treatments. HEK293T cells, THP-1, primary human PBMCs and primary murine peritoneal exudate cells were treated with LukE, LukD or LukED as previously described (Alonzo et al., “CCR5 is a Receptor for Staphylococcus aureus Leukotoxin ED,” Nature 493:51-55 (2013), which is hereby incorporated by reference in its entirety). In all experiments 1-2×10^5 cells were seeded into 96-well plates. […]

DARC = target: T1, DARC; assay: Toxin susceptibility of HEK293T cells transfected with DARC; format: cell-based; conditions: ethidium bromide permeability (1 hr; HlgAB/HlgCB 20 μg/ml)
CCR5 = target: T4, CCR5 (Homo sapiens, UniProt P51681); assay: Toxin susceptibility of HEK293T cells transfected with CCR5; format: cell-based; conditions: ethidium bromide permeability (1 hr; HlgAB 20 μg/ml)
T4 construct: expressed in transfected cells; host or cells: HEK293T
T4 sequence (P51681 whole entry): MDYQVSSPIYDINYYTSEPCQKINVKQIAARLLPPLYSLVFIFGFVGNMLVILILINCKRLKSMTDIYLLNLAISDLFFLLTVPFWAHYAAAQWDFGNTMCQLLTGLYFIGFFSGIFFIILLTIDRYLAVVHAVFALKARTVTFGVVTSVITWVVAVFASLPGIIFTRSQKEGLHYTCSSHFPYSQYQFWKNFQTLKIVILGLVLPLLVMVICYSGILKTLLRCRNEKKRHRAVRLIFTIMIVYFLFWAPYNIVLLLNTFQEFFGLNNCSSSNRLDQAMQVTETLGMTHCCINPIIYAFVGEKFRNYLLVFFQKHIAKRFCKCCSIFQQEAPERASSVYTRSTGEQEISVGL

human PMNs [2] = assay: Viability of primary human neutrophils (PMNs) treated with leukotoxins; format: cell-based
THP-1 cells = assay: Viability of THP-1 cells transduced with non-target or Cxcr2 shRNA treated with LukED; format: cell-based, human; conditions: Cxcr2 shRNA versus non-target shRNA
Experimental: (§4) Cell culture conditions and viral transductions. Primary human cells and THP-1 were cultured at 37° C. with 5% CO2 in RPMI supplemented with 10% fetal bovine serum (FBS; Atlanta Biologicals) and penicillin (100 U ml-1) and streptomycin (0.1 mg ml-1) (Mediatech) unless stated otherwise. Overexpression and lentiviral-based knockdown of Cxcr2 or non-target shRNA were performed as previously described (Wan et al., “Cytokine Signals Through PI-3 Kinase Pathway Modulate Th17 Cytokine Production by CCR6+ Human Memory T Cells,” J. Exp. Med. 208:1875-1887 (2011), which is hereby incorporated by reference in its entirety) and maintained in 1.3 μg ml-1 puromycin. HEK293T cells were cultured at 37° C. with 5% CO2 in DMEM (Cellgro) and supplemented as described above.
as §3

[3] = tested on: PBMC subsets (NK cells, CD8^+ T cells, monocytes); assay: Susceptibility of PBMC subsets to toxins, flow cytometry; format: cell-based, human
Experimental: as §1, §2, §3

[4] = tested on: murine peritoneal exudate cells (PMNs, CCR5^+ macrophages); assay: Killing of murine peritoneal exudate cells (PEC) by toxins in vitro; format: cell-based, mouse; conditions: 300 nM
Experimental: Murine in vitro and in vivo experiments. To evaluate LukED-mediated killing of murine cells in vitro, C57BL/6 WT mice (Taconic) were injected intraperitoneally with 1×10^7 CFU of heatkilled S. aureus Newman ΔlukED. Twenty-four hours post injection, another dose of 1×10^7 CFU of heat-killed S. aureus Newman ΔlukED was injected as before. After an additional twenty-four hours, mice were sacrificed and immune cells were collected by peritoneal cavity lavage using 8 ml of PBS. Red blood cells were lysed using 2 ml ACK lysis buffer (Gibco) followed by resuspension of remaining peritoneal exudate cells in RPMI+10% FBS. Cells were incubated with PBS, LukED or LukE^DR4D (300 nM) and incubated for 30 minutes on ice. After incubation, the cells were washed three times with PBS then stained with the fixable viability dye eFluor-450, followed by cell surface staining with CD11b, B220, F480, CD3, Ly6G, CCR5 and CXCR2 antibodies. Cell viability of specific immune cell populations was subsequently analyzed on an LSRII flow cytometer (BD). FACS plots are representative of results obtained from cells isolated from at least 3 independent animals.

mice = assay: Survival of mice upon bloodstream (intravenous) administration of purified toxin; format: in vivo, mouse; conditions: intravenous injection, 10 μg of each subunit, n=5
human RBCs = assay: LukED-mediated lysis of human red blood cells; format: cell-based; conditions: RBCs from nine donors, DARC+ and DARC−
CXCR1 = target: T2, CXCR1; assay: Toxin susceptibility of HEK293T cells transfected with chemokine receptor CXCR1; format: cell-based; design: expressed in transfected cells; host or cells: HEK293T; conditions: viability (600 nM) or ethidium bromide permeability (1 hr; HlgAB/HlgCB 20 μg/ml)
CXCR2 = target: T3, CXCR2; assay: Toxin susceptibility of HEK293T cells transfected with chemokine receptor CXCR2; format: cell-based; design: expressed in transfected cells; host or cells: HEK293T; conditions: viability (600 nM) or ethidium bromide permeability (1 hr; HlgAB/HlgCB 20 μg/ml)
Experimental: as §4, §3

| Molecule | prevention of LukED-mediated death of PMNs (human PMNs [1]) | inhibition of cytotoxic activity of the LukED-producing S. aureus strain on PMNs (PMNs) | LukED targeting of monocytes (monocytes within PBMCs) | susceptibility of DARC-transfected HEK293T cells to toxin (DARC) | susceptibility of CCR5-transfected HEK293T cells to toxin (CCR5) | cytotoxic activity against hPMNs (human PMNs [2]; LukE or alanine mutant mixed equimolar with LukD, n=8 donors) | susceptibility of PMNs to toxin (viability) (human PMNs [2]; PMNs from Ccr5+/+ and Δ32Ccr5 donors, 75 nM) | LukED killing of THP-1 cells after CXCR2 knockdown (THP-1 cells) | cytotoxicity to NK cells and CD8+ T cells in PBMCs [3] | susceptibility of murine CCR5+ macrophages [4] | murine PMNs killed ([4]; 30 minutes on ice) [%] | lethality in mice (mice) | hemolysis of human RBCs (human RBCs) | susceptibility of CXCR1-transfected HEK293T cells to toxin (CXCR1) | susceptibility of CXCR2-transfected HEK293T cells to toxin (CXCR2) |
| --- | --- | --- | --- | --- | --- | --- | --- | --- | --- | --- | --- | --- | --- | --- | --- |
| CXCL8: chemokine ligand of CXCR1/CXCR2, obtained from BioLegend | prevented LukED-mediated death of PMNs | inhibited by CXCL8 |  |  |  |  |  |  |  |  |  |  |  |  |  |
| B1 |  |  | targeted in a LukED-mediated, CCR5-independent manner | sufficient to render HEK293T cells susceptible | targets CCR5, CXCR1, CXCR2, and DARC to kill host cells | targeted and killed the hPMNs | equally susceptible to LukED | rendered cells resistant to LukED killing | cytotoxic to the majority of NK cells and a subset of CD8^+ T cells | equally susceptible to both LukED and LukE^DR4D | ~79 | rapid death | some donors were susceptible to LukED hemolysis while others were not | sufficient to render HEK293T cells susceptible | sufficient to render HEK293T cells susceptible |
